# *1 amine or outer side, *2 acyl side, *3 side chain or, on linkers, in order; H or OH if unused. Bridges are numbered along the chain shown (N, C = ends). Primed or numbered codes have the meaning given here. Where no end group is shown, it is not given here. [ ]: non-standard residue; d: D form. Tyr(Me) = COc1ccc(C[C@H](N[*:1])C(=O)[*:2])cc1; NMePhe(3-Cl) = CN[C@@H](Cc1cccc(Cl)c1)C(=O)O; NMeW = CN[C@@H](Cc1c[nH]c2ccccc12)C(=O)O; NMeY = CN[C@@H](Cc1ccc(O)cc1)C(=O)O; PEG11′ = not defined here; Aib = CC(C)(N)C(=O)O
# B1: Flip_894_PEG4_KFITC (peptide)
# peptide: {CH2CO}-A[NMeY]F[dR][Aib]IY[Tyr(Me)]YN[NMeW]V[NMePhe(3-Cl)]VC
# modifications: thioether N-15; not fully specified (C-terminus); also: PEG4c not defined
# notes: also called Flip894_variant61_PEG4dk5FAM; Flip894_variant61_PEG4dk5FA
# B2: FLIP_000894_PEG11_K_FITC (peptide)
# peptide: {CH2CO}-A[NMeY]YRRIIYYNWVFVC-{PEG11′-K(FITC)}
# modifications: thioether N-15
# B3: hTfRNo.894FLIP-vivotag750 (peptide)
# peptide: {CH2CO}-A[NMeY]YRRIIYYNWVFVC-{PEG11′-VivoTag750}
# modifications: thioether N-15 (inferred); not fully specified; printed as ClAc-Ala-MeTyr-Tyr-Arg-Arg-Ile-Ile-Tyr-Tyr-Asn-Trp-Val-Phe-Val-Cys
# notes: also called hTfRNo.894FLIP-PEG11-Vivotag750
# B4: JCR_hTfR_000894_PEG11_K(FITC) (peptide)
# peptide: AVFVWNYYIIRRYYC
# modifications: 14 MeTyr; C-term PEG11-K(FITC); cyclic 1-15 thioether
# B5: hTfR_000894_PEG11_(VivoTag) (peptide)
# peptide: {CH2CO}-AVFVWNYYIIRRY[NMeY]C
# modifications: thioether N-15; not fully specified (C-terminus); also: linker PEG11 in text, PEG12 in table
# notes: also called hTfRNo.894-vivotag750; hTfRNo.894-PEG11-Vivotag750
# What was measured:
# [1] = molecular target: T1, human transferrin receptor (hTfR) (human, UniProt P02786 89-760, limits assumed); assay: SPR, hTfR immobilised
# T1 construct: hTfR solution immobilised on NTA chip (Ni capture plus EDC/NHS); also called human TfR
# Procedure: (§1) An NTA sensor chip (Global Life Sciences Technologies Japan) was inserted in a Biacore T200 (Global Life Sciences Technologies Japan) and a prime operation was performed 3 times with a running buffer: 10 mM HEPES pH 8.0 (Nacalai Tesque), 150 mM NaCl (Nacalai Tesque), 0.05% Tween 20 (Nacalai Tesque), 0.1% BSA (Sigma-Aldrich), 1.0% DMSO (FUJIFILM Wako Pure Chemical) to create an Equilibration state at a flow rate of 30 µL/min. After reacting with 350 mM EDTA solution for 60 seconds at a flow rate of 10 µL/min then reacting with 0.5 mM NiCl₂ solution (Kishida Chemical) for 60 seconds at a flow rate of 10 µL/min, the NTA sensor chip was washed with 3 mM EDTA solution (Nacalai Tesque) for 60 seconds at a flow rate of 10 µL/min. After mixing 50 µL each of 60 mM EDC solution (Global Life Sciences Technologies Japan) and 650 mM NHS solution (Global Life Sciences Technologies Japan), the mixture was reacted for 420 seconds at a flow rate of 10 µL/min. By diluting with the running buffer, 150 µL of 3.2 µM hTfR solution was prepared and used for reaction for 600 seconds at a flow rate of 10 µL/min, thereby immobilizing hTfR on the NTA sensor chip. […] An obtained sensorgram was subjected to curve fitting using the least-squares method, and the binding of the peptide to hTfR was evaluated by obtaining KD values.
# [2] = molecular target: T1, human transferrin receptor (hTfR); assay: SPR according to Example 2
# Procedure: (§2) For each of the various synthesized peptides, the intermolecular interaction of the peptide with the transferrin receptor (hTfR) was tested by surface plasmon resonance (SPR) according to the following method. The specific test method is as follows.
# as §1, with “µL/min.” for “µL/min. By diluting with the running buffer, 150 µL of 3.2 µM hTfR solution was prepared and used for reaction for 600 seconds at a flow rate of 10 µL/min, thereby immobilizing hTfR on the NTA sensor chip.”
# [3] = molecular target: T1, human transferrin receptor (hTfR); assay: SPR in accordance with Example 2
# Procedure: as §2
# as §1, with “µL/min.” for “µL/min. By diluting with the running buffer, 150 µL of 3.2 µM hTfR solution was prepared and used for reaction for 600 seconds at a flow rate of 10 µL/min, thereby immobilizing hTfR on the NTA sensor chip.”
# T1 sequence (P02786 89-760 limits assumed): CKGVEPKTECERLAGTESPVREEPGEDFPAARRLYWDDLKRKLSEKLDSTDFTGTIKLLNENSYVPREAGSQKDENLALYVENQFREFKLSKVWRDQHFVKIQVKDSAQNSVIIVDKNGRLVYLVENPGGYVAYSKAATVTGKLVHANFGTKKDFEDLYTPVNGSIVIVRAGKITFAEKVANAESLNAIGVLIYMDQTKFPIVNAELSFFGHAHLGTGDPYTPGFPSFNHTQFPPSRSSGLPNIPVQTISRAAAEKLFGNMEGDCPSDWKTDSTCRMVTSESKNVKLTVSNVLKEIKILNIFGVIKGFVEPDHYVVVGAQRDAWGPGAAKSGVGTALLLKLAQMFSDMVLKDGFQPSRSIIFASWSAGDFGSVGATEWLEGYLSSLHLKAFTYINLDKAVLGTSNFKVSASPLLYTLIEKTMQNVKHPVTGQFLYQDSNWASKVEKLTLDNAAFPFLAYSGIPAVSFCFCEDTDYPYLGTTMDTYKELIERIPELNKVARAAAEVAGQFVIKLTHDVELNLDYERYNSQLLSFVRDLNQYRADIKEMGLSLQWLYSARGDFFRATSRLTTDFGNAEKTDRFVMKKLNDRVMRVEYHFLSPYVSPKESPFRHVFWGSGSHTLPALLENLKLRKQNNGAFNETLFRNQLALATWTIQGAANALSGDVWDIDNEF
binder,measurement,setting,value
B1,binding result,[1],no binding
B2,binding result,[1],no binding
B3,binding result,[2],no binding
B4,Kd,[3],0.28 nM
B5,Kd,[2],1.09 nM

# Source: US20230203098A1 (published 2023)
